The target of this experiment is T1, CD82 polypeptide (human) (human).
T1 sequence (P27701 whole entry, looked up): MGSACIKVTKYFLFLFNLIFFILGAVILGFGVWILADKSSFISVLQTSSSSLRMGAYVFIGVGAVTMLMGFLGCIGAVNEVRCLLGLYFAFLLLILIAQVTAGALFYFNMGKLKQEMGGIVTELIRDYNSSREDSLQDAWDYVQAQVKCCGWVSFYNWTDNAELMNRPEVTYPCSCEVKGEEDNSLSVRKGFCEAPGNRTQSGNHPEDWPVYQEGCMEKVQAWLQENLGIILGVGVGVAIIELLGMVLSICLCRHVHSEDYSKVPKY
In words: IP with anti CD82 antibodies, human myotubes, mass spectrometry.

Our source for the Total and Unique values is patent US20220119489A1, “COMPOSITIONS AND METHODS FOR TREATING MUSCULAR DYSTROPHY AND RELATED DISORDERS” (CHILDREN'S MEDICAL CENTER CORPORATION, priority 2019, published 2022).

B1: PRDX2_HUMAN (enzyme)
chain: ASGNARIGKPAPDFKATAVVDGAFKEVKLSDYKGKYVVLFFYPLDFTFVCPTEIIAFSNRAEDFRKLGCEVLGVSVDSQFTHLAWINTPRKEGGLGPLNIPLLADVTRRLSEDYGVLKTDEGIAYRGLFIIDGKGVLRQITVNDLPVGRSVDEALRLVQAFQYTDEHGEVCPAGWKPGSDTIKPNVDDSKEYFSKHN
For the molecule B1, the Total is 3 and the Unique turned out to be 3.

B2: EHD2_HUMAN (protein)
chain: MFSWLKRGGARGQQPEAIRTVTSALKELYRTKLLPLEEHYRFGAFHSPALEDADFDGKPMVLVAGQYSTGKTSFIQYLLEQEVPGSRVGPEPTTDCFVAVMHGDTEGTVPGNALVVDPDKPFRKLNPFGNTFLNRFMCAQLPNQVLESISIIDTPGILSGAKQRVSRGYDFPAVLRWFAERVDLIILLFDAHKLEISDEFSEAIGALRGHEDKIRVVLNKADMVETQQLMRVYGALMWALGKVVGTPEVLRVYIGSFWSQPLLVPDNRRLFELEEQDLFRDIQGLPRHAALRKLNDLVKRARLVRVHAYIISYLKKEMPSVFGKENKKKQLILKLPVIFAKIQLEHHISPGDFPDCQKMQELLMAHDFTKFHSLKPKLLEALDEMLTHDIAKLMPLLRQEELESTEVGVQGGAFEGTHMGPFVERGPDEAMEDGEEGSDDEAEWVVTKDKSKYDEIFYNLAPADGKLSGSKAKTWMVGTKLPNSVLGRIWKLSDVDRDGMLDDEEFALASHLIEAKLEGHGLPANLPRRLVPPSKRRHKGSAE
As for B2, the Total was found to be 3 and the Unique came to 3.

B3: EHD4_HUMAN (protein)
chain: MFSWMGRQAGGRERAGGADAVQTVTGGLRSLYLRKVLPLEEAYRFHEFHSPALEDADFENKPMILLVGQYSTGKTTFIRYLLEQDFPGMRIGPEPTTDSFIAVMYGETEGSTPGNALVVDPKKPFRKLSRFGNAFLNRFMCSQLPNQVLKSISVIDSPGILSGEKQRISRGYDFCQVLQWFAERVDRIILLFDAHKLDISDEFSEAIKAFRGQDDKIRVVLNKADQVDTQQLMRVYGALMWSLGKVINTPEVLRVYIGSFWAQPLQNTDNRRLFEAEAQDLFRDIQSLPQKAAVRKLNDLIKRARLAKVHAYIISYLKKEMPSVFGKENKKRELISRLPEIYIQLQREYQISAGDFPEVKAMQEQLENYDFTKFHSLKPKLIEAVDNMLSNKISPLMNLISQEETSTPTQLVQGGAFDGTTEGPFNQGYGEGAKEGADEEEWVVAKDKPVYDELFYTLSPINGKISGVNAKKEMVTSKLPNSVLGKIWKLADCDCDGMLDEEEFALAKHLIKIKLDGYELPSSLPPHLVPPSHRKSLPKAD
Molecule B3 displayed a Total of 3 and a Unique of 3.

B4: Eh domain containing 1 (protein)
chain: MFSWVSKDARRKKEPELFQTVAEGLRQLYAQKLLPLEEHYRFHEFHSPALEDADFDNKPMVLLVGQYSTGKTTFIRHLIEQDFPGMRIGPEPTTDSFIAVMHGPTEGVVPGNALVVDPRRPFRKLNAFGNAFLNRFMCAQLPNPVLDSISIIDTPGILSGEKQRISRGYDFAAVLEWFAERVDRIILLFDAHKLDISDEFSEVIKALKNHEDKIRVVLNKADQIETQQLMRVYGALMWSLGKIINTPEVVRVYIGSFWSHPLLIPDNRKLFEAEEQDLFKDIQSLPRNAALRKLNDLIKRARLAKVHAYIISSLKKEMPNVFGKESKKKELVNNLGEIYQKIEREHQISPGDFPSLRKMQELLQTQDFSKFQALKPKLLDTVDDMLANDIARLMVMVRQEESLMPSQVVKGGAFDGTMNGPFGHGYGEGAGEGIDDVEWVVGKDKPTYDEIFYTLSPVNGKITGANAKKEMVKSKLPNTVLGKIWKLADVDKDGLLDDEEFALANHLIKVKLEGHELPADLPPHLVPPSKRRHE
B4 showed a Total of 3 and a Unique of 3.

B5: TGF beta receptor 1 (receptor)
chain: LQCFCHLCTKDNFTCVTDGLCFVSVTETTDKVIHNSMCIAEIDLIPRDRPFVCAPSSKTGSVTTTYCCNQDHCNKIELPTTVKSSPGLGPVELAAVIAGPVCFVCISLMLMVYICHNRTVIHHRVPNEEDPSLDRPFISEGTTLKDLIYDMTTSGSGSGLPLLVQRTIARTIVLQESIGKGRFGEVWRGKWRGEEVAVKIFSSREERSWFREAEIYQTVMLRHENILGFIAADNKDNGTWTQLWLVSDYHEHGSLFDYLNRYTVTVEGMIKLALSTASGLAHLHMEIVGTQGKPAIAHRDLKSKNILVKKNGTCCIADLGLAVRHDSATDTIDIAPNHRVGTKRYMAPEVLDDSINMKHFESFKRADIYAMGLVFWEIARRCSIGGIHEDYQLPYYDLVPSDPSVEEMRKVVCEQKLRPNIPNRWQSCEALRVMAKIMRECWYANGAARLTALRIKKTLSQLSQQEGIKM
On to B5, for which the Total was determined as 3 and the Unique stood at 3.

B6: Annexin A1 (human) (protein)
chain: AMVSEFLKQAWFIENEEQEYVQTVKSSKGGPGSAVSPYPTFNPSSDVAALHKAIMVKGVDEATIIDILTKRNNAQRQQIKAAYLQETGKPLDETLKKALTGHLEEVVLALLKTPAQFDADELRAAMKGLGTDEDTLIEILASRTNKEIRDINRVYREELKRDLAKDITSDTSGDFRNALLSLAKGDRSEDFGVNEDLADSDARALYEAGERRKGTDVNVFNTILTTRSYPQLRRVFQKYTKYSKHDMNKVLDLELKGDIEKCLTAIVKCATSKPAFFAEKLHQAMKGVGTRHKALIRIMVSRSEIDMNDIKAFYQKMYGISLCQAILDETKGDYEKILVALCGGN
With B6, the Total amounted to 3 and the Unique was found to be 3.
